For 2 substances, pKa results are on record in PMC8857205.

As a reminder, the pKa is the negative logarithm of the acid dissociation constant.

The target in this series is Glu14 (UniProt position 14, GAILAEVIGTT). The series can be described thus: NMR.
Where [1] appears, read: TPP+-bound, cited from earlier work.

Regarding “EmrE (multidrug transporter, small multidrug resistance family), wild type (Escherichia coli)”, the pKa under setting [1] was 6.8 ± 0.1. In the case of S64V-EmrE (Escherichia coli; S64V), the pKa reads like this: (45 °C, 20 mM NaCl plus buffer salts (total ionic strength not stated), 50 mM sodium acetate, 50 mM MOPS, 50 mM MES, 50 mM bicine, 2 mM TCEP, 0.01% DSS, F4-TPP+-bound (saturated), folded dimer in bicelles) 6.9 ± 0.1; under setting [1], 7.0 ± 0.1.
